Molecular target: T1, VTN (vitronectin) (Homo sapiens (Human), UniProt P04004)
T1 chain: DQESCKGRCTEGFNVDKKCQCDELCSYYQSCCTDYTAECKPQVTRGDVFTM
Assay: SPR; Mg2+/Ca2+/Mn2+ buffer, 37 °C 1 mM MgCl2, 1 mM CaCl2, 2 mM MnCl2 in SPR buffer

B1: integrin αvβ3 (rhαvβ3) (protein)
chain 1: FNLDVDSPAEYSGPEGSYFGFAVDFFVPSASSRMFLLVGAPKANTTQPGIVEGGQVLKCDWSSTRRCQPIEFDATGNRDYAKDDPLEFKSHQWFGASVRSKQDKILACAPLYHWRTEMKQEREPVGTCFLQDGTKTVEYAPCRSQDIDADGQGFCQGGFSIDFTKADRVLLGGPGSFYWQGQLISDQVAEIVSKYDPNVYSIKYNNQLATRTAQAIFDDSYLGYSVAVGDFNGDGIDDFVSGVPRAARTLGMVYIYDGKNMSSLYNFTGEQMAAYFGFSVAATDINGDDYADVFIGAPLFMDRGSDGKLQEVGQVSVSLQRASGDFQTTKLNGFEVFARFGSAIAPLGDLDQDGFNDIAIAAPYGGEDKKGIVYIFNGRSTGLNAVPSQILEGQWAARSMPPSFGYSMKGATDIDKNGYPDLIVGAFGVDRAILYRARPVITVNAGLEVYPS
chain 2: GPNICTTRGVSSCQQCLAVSPMCAWCSDEALPLGSPRCDLKENLLKDNCAPESIEFPVSEARVLEDRPLSDKGSGDSSQVTQVSPQRIALRLRPDDSKNFSIQVRQVEDYPVDIYYLMDLSYSMKDDLWSIQNLGTKLATQMRKLTSNLRIGFGAFVDKPVSPYMYISPPEALENPCYDMKTTCLPMFGYKHVLTLTDQVTRFNEEVKKQSVSRNRDAPEGGFDAIMQATVCDEKIGWRNDASHLLVFTTDAKTHIALDGRLAGIVQPNDGQCHVGSDNHYSASTTMDYPSLGLMTEKLSQKNINLIFAVTENVVNLYQNYSELIPGTTVGVLSMDSSNVLQLIVDAYGKIRSKVELEVRDLPEELSLSFNATCLNNEVIPGLKSCMGLKIGDTVSFSIEAKVRGCPQEKEKSFTIKPVGFKDSLIVQVTFDCDCA
  Kd: 997 nM

Reference: paper PMC9800282 (2022)
